Measured values published in US20090149339A1.

Biological target: GST-DLG1 PDZ domain fusion protein (human homolog of Drosophila discs large protein AA275-477; PDZ domains 1-2 of 3) (human) [GST: P08515]
Assay: variant of G assay: 100 µM unlabeled 8-mer with 20 µM biotin-labeled AA2L CLASP-2 peptide on GST-DLG1

Chain of GST-DLG1 PDZ domain fusion protein (human homolog of Drosophila discs large protein AA275-477; PDZ domains 1-2 of 3) (human) [GST: P08515] (P08515 1-218, tags or fused parts left off): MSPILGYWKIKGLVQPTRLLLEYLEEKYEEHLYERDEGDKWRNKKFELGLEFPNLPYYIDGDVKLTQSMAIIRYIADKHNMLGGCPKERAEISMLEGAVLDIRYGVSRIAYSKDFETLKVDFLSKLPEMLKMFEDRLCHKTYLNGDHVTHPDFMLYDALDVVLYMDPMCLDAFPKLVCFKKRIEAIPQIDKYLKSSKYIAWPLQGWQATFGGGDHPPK

eight amino acid CLASP-2 peptide MTSSSSVV (unlabeled competitor)
percent inhibition: > 50%
